Measured values: US20080124758A1, “Transmembrane domain removed recombinant human tyrosinase and method of producing the same” (Chung-Ang University Industry-Academy Cooperation Foundation, priority 2006, published 2008)
Where two headings read alike, the source gives them in different places.

How the values were obtained:
[1] = Dopa oxidase activity of human tyrosinase (method of Fling et al., dopachrome at 475 nm); format: biochemical
Method: (§1) The measurement of the dopa oxidase activity was conducted by the method of Fling et al. (Fling et al. J. Biol. Chem. 238: 2045-2053, 1963). The transformation of L-dopa which was the substrate of dopa oxidase into a brown product of dopachrome by tyrosinase was measured at 475 nm. […] 3 mM of L-dopa was added into 50 mM of tris-HCl buffer solution (pH 7.5) and incubated at 370 for 10 minutes. Then, 30 μl of human tyrosinase was added and the absorbance change was measured at 475 nm for 3 minutes. At this time, the unit of the activity of the enzyme was defined as follows. When 1 μmole of dopachrome was produced for 1 minute, this activity was defined as 1 unit (μmole/min). Specific activity was defined as 1 unit per 1 mg enzyme.

[2] = Influence of L-tyrosine concentration, Km by Lineweaver-Burk plot; format: biochemical
Method: (§2) The measuring of the tyrosine hydroxylase activity was conducted according to a method of Husain et al. (Husain et al., J. Invest. Dermatol. 78: 243-252, 1982). Hydroxylation was conducted within an L-Dopa concentration range of 0-30 mM. A standard curve with respect to L-dopa was obtained. Using the standard curve, the amount of L-dopa produced after the reaction was determined. The reaction solution was prepared by adding 100 μM of L-tyrosine, L-dopa of each concentration, 4 mM of ascorbic acid and 100 μl of human tyrosinase into 50 mM Potassium phosphate buffer solution (pH 6.8) to obtain 2.5 ml of the solution. After that, the reaction was conducted at 37° C. for 3 hours. At this time, a reaction was conducted without adding the purified human tyrosinase as a control. The product was subjected to excitation at 360 nm and then was subjected to an emission at 490 nm by a method of Ram et al. (Ram et al., J. Biol. Chem. 267: 23707-23712, 1992). The intensity of the emission was measured. The measured value was converted into the concentration of L-dopa and the enzyme activity was measured. The specific activity with respect to the tyrosine hydroxylase activity of the purified human tyrosinase of the present invention was determined as the created mol number (mmol) of the L-dopa with respect to the amount of the enzyme (μg) per hour.
(§3) The concentration of the substrate, L-tyrosine was given in a range of 0.01-1 mM, and the influence of the substrate concentration onto the recombinant human tyrosinase prepared by example 2 was evaluated. It is conducted by the same method of measuring the tyrosine hydroxylase activity explained in the experiment 1. The Km value of the recombinant human tyrosinase according to the present invention was calculated by the Lineweaver-Burk Plot (Lineweaver et al., J. Am, Chem. Soc., 56; 658-666, 1934).

[3] = Tyrosine hydroxylase activity of human tyrosinase (method of Husain et al., fluorescence of L-dopa formed); format: biochemical; conditions: for Increase of specific tyrosine hydroxylase activity of the His-bind purified enzyme compared to the crude extract: His-bind resin purified vs crude extract
Method: as §2

[4] = Influence of L-dopa concentration, Km by Lineweaver-Burk plot; format: biochemical; conditions: L-dopa 0.05-5 mM
Method: as §1, with “Specific activity was defined as 1 unit per 1 mg enzyme.” left out
as §3, with “It is conducted by the same method of measuring the tyrosine hydroxylase activity explained in the experiment 1.” left out
The concentration of L-dopa, which is another substrate of the human tyrosinase was given in a range of 0.05-5 mM and the influence of the substrate concentration with respect to the recombinant human tyrosinase prepared in example 2 was examined. The dopa oxidase activity is measured by the same method of experiment 2. […]

[5] = read-out: Km value to L-tyrosine, cited from earlier work
[6] = literature value, Spritz et al. 1997; cited from earlier work
[7] = purification step: His.bind resin chromatography
[8] = purification step: crude extract
[9] = purification step: DEAE-Sephacel chromatography

Molecule | Purification degree (dopa oxidase specific activity relative to crude extract) [1, 7] [fold] | Specific activity (dopa oxidase) [1, 7] [units/mg] | Total activity (dopa oxidase) [1, 7] [units] | Purification degree (dopa oxidase specific activity relative to crude extract) [1, 8] [fold] | Specific activity (dopa oxidase) [1, 8] [units/mg] | Total activity (dopa oxidase) [1, 8] [units] | Increase of specific tyrosine hydroxylase activity of the His-bind purified enzyme compared to the crude extract [3] | Specific activity (tyrosine hydroxylase) [3, 8] [µmol/mg/h] | Purification degree (dopa oxidase specific activity relative to crude extract) [1, 9] [fold] | Specific activity (dopa oxidase) [1, 9] [units/mg] | Total activity (dopa oxidase) [1, 9] [units] | further results
Recombinant human tyrosinase of example 2 (pET-hTyrosinase(TM-)): Human tyrosinase with C-terminal transmembrane domain (55 amino acids) removed, SEQ ID NO: 2, expressed in E. coli with six … (protein, C-terminal His6 tag; Human tyrosinase) MHFPRACVSSKNLMEKECCPPWSGDRSPCGQLSGRGSCQNILLSNAPLGPQFPFTGVDDRESWPSVFYNRTCQCSGNFMGFNCGNCKFGFWGPNCTERRLLVRRNIFDLSAPEKDKFFAYLTLAKHTISSDYVIPIGTYGQMKNGSTPMFNDINIYDLFVWMHYYVSMDALLGGSEIWRDIDFAHEAPAFLPWHRLFLLRWEQEIQKLTGDENFTIPYWDWRDAEKCDICTDEYMGGQHPTNPNLLSPASFFSSWQIVCSRLEEYNSHQSLCNGTPEGPLRRNPGNHDKSRTPRLPSSADVEFCLSLTQYESGSMDKAANFSFRNTLEGFASPLTGIADASQSSMHNALHIYMNGTMSQVQGSANDPIFLLHHAFVDSIFEQWLRRHRPLQEVYPEANAPIGHNRESYMVPFIPLYRNGDFFISSKDLGYDYSYLQDSDPDSFQDYIKSYLEQASRI | 46 | 807 | 2977 | 1.0 | 17.7 | 6200 | about 52 times | 2.1 ± 0.05 |  |  |  | Specific dopa oxidase activity, times higher than recombinant human tyrosinase of comparative example 1 ([1]; vs Korean Patent Application No. 2001-0057379 (comparative example 1)): about 31 times; Specific dopa oxidase activity, times higher than recombinant human tyrosinase of comparative example 2 ([1]; vs Korean Patent Application No. 2002-0073728 (comparative example 2)): about 1.2 times; Affinity onto the substrate L-tyrosine, times higher [2]: ≥ 100 times; Km ([2]; L-tyrosine 0.01-1 mM, Lineweaver-Burk plot): 1.32 µM; Km to L-tyrosine, times lower than Km of earlier tyrosinases ([2]; at the most, vs 0.17 mM, 2.34 μM and 0.2 mM): about 130 times; Specific activity (tyrosine hydroxylase) ([3]; purification step: His.bind resin chromatography (finally purified), listed as Recombinant human tyrosinase of example 2 (pET-hTyrosinase(TM-))): 108.3 ± 2.10 µmol/mg/h; Specific activity (tyrosine hydroxylase) ([3]; purification step: His.bind resin chromatography (finally purified), listed as recombinant human tyrosinase): 108.3 ± 2.10 µmol/mg/h; Km [4]: 340 µM
Recombinant human tyrosinase of comparative example 2 (pET-hTyr): Recombinant human tyrosinase produced in E. coli with pET-hTyr vector by the method of Korean Patent Application No. 2002-0073728 (protein, UniProt P14679 19-529, looked up) Tyrosinase: HFPRACVSSKNLMEKECCPPWSGDRSPCGQLSGRGSCQNILLSNAPLGPQFPFTGVDDRESWPSVFYNRTCQCSGNFMGFNCGNCKFGFWGPNCTERRLLVRRNIFDLSAPEKDKFFAYLTLAKHTISSDYVIPIGTYGQMKNGSTPMFNDINIYDLFVWMHYYVSMDALLGGSEIWRDIDFAHEAPAFLPWHRLFLLRWEQEIQKLTGDENFTIPYWDWRDAEKCDICTDEYMGGQHPTNPNLLSPASFFSSWQIVCSRLEEYNSHQSLCNGTPEGPLRRNPGNHDKSRTPRLPSSADVEFCLSLTQYESGSMDKAANFSFRNTLEGFASPLTGIADASQSSMHNALHIYMNGTMSQVQGSANDPIFLLHHAFVDSIFEQWLRRHRPLQEVYPEANAPIGHNRESYMVPFIPLYRNGDFFISSKDLGYDYSYLQDSDPDSFQDYIKSYLEQASRIWSWLLGAAMVGAVLTALLAGLVSLLCRHKRKQLPEEKQPLLMEKEDYHSLYQSHL | 49 | 699 | 1922 | 1.0 | 14.3 | 5700 | about 49 times | 1.8 ± 0.05 | 5 | 69.7 | 4460 | Specific activity (tyrosine hydroxylase) [3, 9]: 11.0 ± 0.12 µmol/mg/h; Specific activity (tyrosine hydroxylase) ([3]; purification step: His.bind resin chromatography (finally purified)): 88.0 ± 1.50 µmol/mg/h; Km ([5]; value from previous filing): 2.34 µM
Recombinant human tyrosinase of comparative example 1 (pHis-hTyr): Recombinant human tyrosinase produced in E. coli with pHis-hTyr vector by the method of Korean Patent Application No. 2001-0057379 (protein, UniProt P14679 19-529, looked up, His tag) Tyrosinase: HFPRACVSSKNLMEKECCPPWSGDRSPCGQLSGRGSCQNILLSNAPLGPQFPFTGVDDRESWPSVFYNRTCQCSGNFMGFNCGNCKFGFWGPNCTERRLLVRRNIFDLSAPEKDKFFAYLTLAKHTISSDYVIPIGTYGQMKNGSTPMFNDINIYDLFVWMHYYVSMDALLGGSEIWRDIDFAHEAPAFLPWHRLFLLRWEQEIQKLTGDENFTIPYWDWRDAEKCDICTDEYMGGQHPTNPNLLSPASFFSSWQIVCSRLEEYNSHQSLCNGTPEGPLRRNPGNHDKSRTPRLPSSADVEFCLSLTQYESGSMDKAANFSFRNTLEGFASPLTGIADASQSSMHNALHIYMNGTMSQVQGSANDPIFLLHHAFVDSIFEQWLRRHRPLQEVYPEANAPIGHNRESYMVPFIPLYRNGDFFISSKDLGYDYSYLQDSDPDSFQDYIKSYLEQASRIWSWLLGAAMVGAVLTALLAGLVSLLCRHKRKQLPEEKQPLLMEKEDYHSLYQSHL | 65.0 | 26.0 | 26 | 1.0 | 0.4 | 136 |  |  | 3.5 | 1.4 | 64 | Km ([5]; value from previous filing or literature): 170 µM
purified tyrosinase from human HeLa cell: Tyrosinase purified from human HeLa cell (Spritz et al., 1997) (protein, UniProt P14679 19-529, looked up) Tyrosinase: HFPRACVSSKNLMEKECCPPWSGDRSPCGQLSGRGSCQNILLSNAPLGPQFPFTGVDDRESWPSVFYNRTCQCSGNFMGFNCGNCKFGFWGPNCTERRLLVRRNIFDLSAPEKDKFFAYLTLAKHTISSDYVIPIGTYGQMKNGSTPMFNDINIYDLFVWMHYYVSMDALLGGSEIWRDIDFAHEAPAFLPWHRLFLLRWEQEIQKLTGDENFTIPYWDWRDAEKCDICTDEYMGGQHPTNPNLLSPASFFSSWQIVCSRLEEYNSHQSLCNGTPEGPLRRNPGNHDKSRTPRLPSSADVEFCLSLTQYESGSMDKAANFSFRNTLEGFASPLTGIADASQSSMHNALHIYMNGTMSQVQGSANDPIFLLHHAFVDSIFEQWLRRHRPLQEVYPEANAPIGHNRESYMVPFIPLYRNGDFFISSKDLGYDYSYLQDSDPDSFQDYIKSYLEQASRIWSWLLGAAMVGAVLTALLAGLVSLLCRHKRKQLPEEKQPLLMEKEDYHSLYQSHL |  |  |  |  |  |  |  |  |  |  |  | Specific activity with respect to tyrosine hydroxylase activity [6]: 22.3±0.01 μmol/1 g/h
